Data taken from publication PMC9114370 (2022).

Biological target: T1, TDP-43_(1–102) (human, UniProt Q13148 1-102, fluorescently labelled for MST)
T1 chain: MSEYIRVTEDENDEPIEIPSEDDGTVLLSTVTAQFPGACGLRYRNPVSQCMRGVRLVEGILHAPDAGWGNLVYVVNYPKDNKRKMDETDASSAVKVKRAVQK
Assay: MST

- Kd: 1440 nM
B1: HspA5 substrate binding domain (SBD) (domain or fragment)
chain: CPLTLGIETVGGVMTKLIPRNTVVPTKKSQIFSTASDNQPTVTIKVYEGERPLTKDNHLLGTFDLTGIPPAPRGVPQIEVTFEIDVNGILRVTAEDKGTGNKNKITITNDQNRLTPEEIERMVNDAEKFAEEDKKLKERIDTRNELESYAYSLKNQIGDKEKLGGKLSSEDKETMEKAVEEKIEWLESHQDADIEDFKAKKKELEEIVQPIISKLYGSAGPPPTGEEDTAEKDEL
